Test [1] concerns the target ALPH1ΔN (amino acids 222-734), recombinant (T. brucei). The test can be described thus: SEC-MALS; 100 µl injected at 5 mg/ml on Superdex 200 Increase 10/300 GL, 15°C, 0.4 ml/min, PBS buffer.
Test [2] has as its target Full length ALPH1 (amino acid 1-734), recombinant (T. brucei). The test is described as above.

Regarding “ALPH1ΔN (amino acids 222-734), recombinant (domain or fragment)”, the stoichiometry N in test [1] was found to be 2.
For the substance “Full length ALPH1 (amino acid 1-734), recombinant (enzyme)”, the stoichiometry N in test [2] turned out to be 2.

The values above are taken from paper PMC10415143.
